The test addresses hexa-His-β6 bundlin (soluble, recombinant WT β6 bundlin) (enteropathogenic Escherichia coli (EPEC) strain RN587/1). Put plainly: native MS.

This passage reports stoichiometry N results from PMC2719252.

For the substance “hexa-His-β6 bundlin (soluble, recombinant WT β6 bundlin) (natural protein)”, the stoichiometry N is 2.

The term stoichiometry N denotes a count of units in the complex or per binding partner.
